Changes are numbered by the printed parent chain.

Assay [1] can be described thus: Phage titer assay of phage binding to hair. On the set-up: species or system human. Particulars: phage-displayed peptide; six gray hair strands; relative to HP2-TonB-Gray3 = 100. As for the experimental part: (§1) Phage particles recovered from panning (Example 2) were used to infect E. coli 10GF′ and transformants were purified by colony isolation. Purified phagemid clones were infected with helper phage VCSM13 and phage particles were isolated. Those purified phage clones were assayed for binding to hair by two methods.
Six gray hair strands (1.5 cm long) were blocked with BSA (1 mg/mL) at room temperature (˜21° C.) for 30 min in 1.5 mL microfuge tubes, then washed twice with tris buffered saline (TBS). Phage particles were added in TBS plus 0.1% TWEEN®-20 and incubated at room temperature for 1 hour with gentle shaking. The hair was then washed 3 times with TBS plus 0.5% TWEEN®-20, and centrifuged briefly to remove excess liquid. E. coli 10GF′ (1 mL; OD600nm=0.5) was added for 15 min. Aliquots were plated on selective plates and phagemid-containing colonies were counted (Table 4)

A short description of assay [2]: Phage ELISA of phage binding to hair. Particulars: phage-displayed peptide, 1×10^11 pfu; A450; relative to HP2-TonB-Gray3 = 100. Further details: species or system human. As for the experimental part: as §1
Gray hair (200 strands, 1.5 cm long per bundle were blocked with BSA (1 mg/mL) at room temperature (˜21° C.) for 30 min in 1.5 mL microfuge tubes, then washed 3 times with TBS. Phage particles (1×10^11 pfu) were added in TBS plus 0.1% TWEEN®-20 and incubated at room temperature for 1 hr with gentle shaking. The hair was then washed 5 times with TBS plus 0.5% TWEEN®-20. Hair with bound phage was incubated with HRP/Anti-M13 monoclonal conjugate (GE Healthcare Bio-Science Corp, Piscataway, N.J.) at room temperature (˜21° C.) for 1 hr with gentle shaking, then washed 6 times with TBS plus 0.5% TWEEN®-20. IMMUNOPURE® TMB substrate kit (High sensitivity, Pierce, Rockford, Ill.; a division of Thermo Scientific) was used for colorimetric assay. After 15˜20 min development with gentle shaking, the reaction was stopped, and absorbance was determined at 450 nm. The Phage titer and ELISA data were reported relative to the activity observed for the hair-binding domain HP2-TonB-Gray3. (Table 4).
(An ELISA detects its analyte on a solid surface through an enzyme-linked reagent.)

Take “HB1-(KGGGS)4-HP2: hair-binding domain with flexible linker, SEQ ID NO: 95 (PSTPPTNVLMLATKGPKGGGSKGGGSKGGGSKGGGSPAAQSQLPDKHSGLHERAPQRYGS)”: the “Phage Titer (%) relative to the activity of HP2-TonB-Gray3” value (from here on “Phage Titer (%) relative to the activity”) in assay [1] is on record as 10%. Moreover, the “ELISA (%) relative to the activity of HP2-TonB-Gray3” value (from here on “ELISA (%) relative to the activity”) in assay [2] is 1%.

For “HB1-(KP)12-IB5A: hair-binding domain, SEQ ID NO: 96 (PSTPPTNVLMLATKGPKPKPKPKPKPKPKPKPKPKPKPKPPATPPELLHGAPRSGS)”, in assay [1], the “Phage Titer (%) relative to the activity” value is reported as 5%. Also, the “ELISA (%) relative to the activity” value in assay [2] was found to be 1%.

Regarding “Gray1-(KP)8-Gray1: hair-binding domain, SEQ ID NO: 77 (PSGMPAMHWIHPFAGPKPKPKPKPKPKPKPKPPAGMPAMHWIHPFAGS)”, in assay [1], the “Phage Titer (%) relative to the activity” value is reported as 1%. Besides, the “ELISA (%) relative to the activity” value in assay [2] was found to be 1%.

“KF11-[(KP)6GG]2-KF11: hair-binding domain, SEQ ID NO: 101 (PSNTSQLSTGPKPKPKPKPKPKPGGKPKPKPKPKPKPGGPANTSQLSTGS)”: the “Phage Titer (%) relative to the activity” value in assay [1] is given as 1%. Moreover, in assay [2], the “ELISA (%) relative to the activity” value was found to be 1%.

In the case of “HP2-(EEAAKK)2-MEA4: hair-binding domain, SEQ ID NO: 76 (PSAQSQLPDKHSGLHERAPQRYGPEEAAKKEEAAKKPAHINKTNPHQGNHHSEKTQRQGS)”, in assay [1], the “Phage Titer (%) relative to the activity” value is 330%. Moreover, the “ELISA (%) relative to the activity” value in assay [2] worked out at 130%.

For the molecule “Gray3-[(KP)6GG]2-KF11: hair-binding domain, SEQ ID NO: 83 (PSHDHKNQKETHQRHAAGPKPKPKPKPKPKPGGKPKPKPKPKPKPGGPANTSQLSTGS)”, in assay [1], the “Phage Titer (%) relative to the activity” value is listed as 1%. Also, the “ELISA (%) relative to the activity” value in assay [2] amounted to 1%.

B1: KF11-[(KP)6GG]2-Gray4A: hair-binding domain, SEQ ID NO: 97 (peptide)
chain: PSNTSQLSTGPKPKPKPKPKPKPGGKPKPKPKPKPKPGGPAHNHMQERYTAPQHSPSVNGLGS
B1: the “Phage Titer (%) relative to the activity” value in assay [1] is given as 1%. Also, the “ELISA (%) relative to the activity” value in assay [2] is on record as 1%.

B2: Gray3-TonB-HP1: hair-binding domain, SEQ ID NO: 98 (peptide)
chain: PSHDHKNQKETHQRHAAGPEPEPEPEPIPEPPKEAPVVIEKPKPKPKPKPKPPAGSCVDTHKADSCVANNGPATGS
B2: the “Phage Titer (%) relative to the activity” value in assay [1] came to 1%. Moreover, in assay [2], the “ELISA (%) relative to the activity” value turned out to be 1%.

B3: Gray5-[(KP)6GG]2-Gray4A: hair-binding domain, SEQ ID NO: 78 (peptide)
chain: PSTAEIQSSKNPNPHPQRSWTNGPKPKPKPKPKPKPGGKPKPKPKPKPKPGGPAHNHMQERYTAPQHSPSVNGLGS
Consider B3, for which the “Phage Titer (%) relative to the activity” value in assay [1] was 1%. The “ELISA (%) relative to the activity” value in assay [2] is recorded as 1%.

B4: HP2-TonB-IB5A: hair-binding domain, SEQ ID NO: 88 (peptide)
chain: PSAQSQLPDKHSGLHERAPQRYGPEPEPEPEPIPEPPKEAPVVIEKPKPKPKPKPKPPATPPELLHGAPRSGS
For the molecule B4, the “Phage Titer (%) relative to the activity” value in assay [1] is recorded as 50%. Also, in assay [2], the “ELISA (%) relative to the activity” value is listed as 100%.

B5: HP2-TonB-HB1: hair-binding domain, SEQ ID NO: 93 (peptide)
chain: B4 chain with E63T, L64N, L65V, H66L, G67M, A68L, P69A, R70T, S71K
With B5, the “Phage Titer (%) relative to the activity” value in assay [1] is 30%. The “ELISA (%) relative to the activity” value in assay [2] came out at 1%.

B6: HP2-TonB-HP2: hair-binding domain, SEQ ID NO: 91 (peptide)
chain: PSAQSQLPDKHSGLHERAPQRYGPEPEPEPEPIPEPPKEAPVVIEKPKPKPKPKPKPPAAQSQLPDKHSGLHERAPQRYGS
With B6, the “Phage Titer (%) relative to the activity” value in assay [1] came to 55%. Besides, the “ELISA (%) relative to the activity” value in assay [2] is on record as 55%.

B7: Gray5-[(KP)6GG]2-HP2: hair-binding domain, SEQ ID NO: 99 (peptide)
chain: PSTAEIQSSKNPNPHPQRSWTNGPKPKPKPKPKPKPGGKPKPKPKPKPKPGGPAAQSQLPDKHSGLHERAPQRYGS
On to B7, for which the “Phage Titer (%) relative to the activity” value in assay [1] is 1%. Further, the “ELISA (%) relative to the activity” value in assay [2] is 1%.

B8: Gray5-(EAAAKLL)3-Gray3: hair-binding domain, SEQ ID NO: 92 (peptide)
chain: PSTAEIQSSKNPNPHPQRSWTNGPEAAAKLLEAAAKLLEAAAKLLPAHDHKNQKETHQRHAAGS
For the molecule B8, in assay [1], the “Phage Titer (%) relative to the activity” value is reported as 10%. For the same molecule, the “ELISA (%) relative to the activity” value in assay [2] is listed as 60%.

B9: Gray5-(EAAAKLL)3-MEA4: hair-binding domain, SEQ ID NO: 90 (peptide)
chain: PSTAEIQSSKNPNPHPQRSWTNGPEAAAKLLEAAAKLLEAAAKLLPAHINKTNPHQGNHHSEKTQRQGS
In the case of B9, in assay [1], the “Phage Titer (%) relative to the activity” value was 25%. In assay [2], the “ELISA (%) relative to the activity” value is 115%.

B10: HP2-(EEAAKK)4-Gray1: hair-binding domain, SEQ ID NO: 73 (peptide)
chain: PSAQSQLPDKHSGLHERAPQRYGPEEAAKKEEAAKKEEAAKKEEAAKKPAGMPAMHWIHPFAGS
As to B10, the “Phage Titer (%) relative to the activity” value in assay [1] came to 40%. The “ELISA (%) relative to the activity” value in assay [2] is recorded as 8%.

B11: Gray3-(EAAAKLL)4-HB1: hair-binding domain, SEQ ID NO: 100 (peptide)
chain: PSHDHKNQKETHQRHAAGPEAAAKLLEAAAKLLEAAAKLLEAAAKLLPATPPTNVLMLATKGS
For the molecule B11, the “Phage Titer (%) relative to the activity” value in assay [1] was 1%. The “ELISA (%) relative to the activity” value in assay [2] came to 1%.

B12: HP2-(EEAAKK)5-Gray4A: hair-binding domain, SEQ ID NO: 74 (peptide)
chain: PSAQSQLPDKHSGLHERAPQRYGPEEAAKKEEAAKKEEAAKKEEAAKKEEAAKKPAHNHMQERYTAPQHSPSVNGLGS
For B12, the “Phage Titer (%) relative to the activity” value in assay [1] is 50%. Further, the “ELISA (%) relative to the activity” value in assay [2] is 80%.

B13: HP2-TonB-Gray3: hair-binding domain, SEQ ID NO: 85, also found in peptide HC353 (peptide)
chain: PSAQSQLPDKHSGLHERAPQRYGPEPEPEPEPIPEPPKEAPVVIEKPKPKPKPKPKPPAHDHKNQKETHQRHAAGS
In the case of B13, the “Phage Titer (%) relative to the activity” value in assay [1] was found to be 100%. Moreover, the “ELISA (%) relative to the activity” value in assay [2] is on record as 100%.

B14: MEA4-(EAAAKLL)3-IB5A: hair-binding domain, SEQ ID NO: 94 (peptide)
chain: PSHINKTNPHQGNHHSEKTQRQGPEAAAKLLEAAAKLLEAAAKLLPATPPELLHGAPRSGS
In the case of B14, the “Phage Titer (%) relative to the activity” value in assay [1] was determined as 10%. Also, the “ELISA (%) relative to the activity” value in assay [2] stood at 20%.

The values are drawn from patent publication US9278138B2, “Peptide linkers for effective multivalent peptide binding” (E. I. DU PONT DE NEMOURS AND COMPANY, priority 2008, dated 2016).
